According to patent publication US20190169241A1 (BOARD OF TRUSTEES OF THE UNIVERSITY OF ILLINOIS, published 2019):
No end group written: not given here.

What was measured:
[1] = biological target: T1, vascular endothelial growth factor receptor 2 (VEGFR2), endogenous, from HUVEC lysates (human, UniProt P35968 20-1356); assay: pull-down from HUVEC lysate with recombinant protein on beads, anti-VEGFR2 western blot
T1 construct: Endogenous receptor from cell lysate, detected by western blot with anti-VEGFR2 antibody or by mass spectrometry; also called Flk-1
T1 sequence (P35968 20-1356 limits assumed): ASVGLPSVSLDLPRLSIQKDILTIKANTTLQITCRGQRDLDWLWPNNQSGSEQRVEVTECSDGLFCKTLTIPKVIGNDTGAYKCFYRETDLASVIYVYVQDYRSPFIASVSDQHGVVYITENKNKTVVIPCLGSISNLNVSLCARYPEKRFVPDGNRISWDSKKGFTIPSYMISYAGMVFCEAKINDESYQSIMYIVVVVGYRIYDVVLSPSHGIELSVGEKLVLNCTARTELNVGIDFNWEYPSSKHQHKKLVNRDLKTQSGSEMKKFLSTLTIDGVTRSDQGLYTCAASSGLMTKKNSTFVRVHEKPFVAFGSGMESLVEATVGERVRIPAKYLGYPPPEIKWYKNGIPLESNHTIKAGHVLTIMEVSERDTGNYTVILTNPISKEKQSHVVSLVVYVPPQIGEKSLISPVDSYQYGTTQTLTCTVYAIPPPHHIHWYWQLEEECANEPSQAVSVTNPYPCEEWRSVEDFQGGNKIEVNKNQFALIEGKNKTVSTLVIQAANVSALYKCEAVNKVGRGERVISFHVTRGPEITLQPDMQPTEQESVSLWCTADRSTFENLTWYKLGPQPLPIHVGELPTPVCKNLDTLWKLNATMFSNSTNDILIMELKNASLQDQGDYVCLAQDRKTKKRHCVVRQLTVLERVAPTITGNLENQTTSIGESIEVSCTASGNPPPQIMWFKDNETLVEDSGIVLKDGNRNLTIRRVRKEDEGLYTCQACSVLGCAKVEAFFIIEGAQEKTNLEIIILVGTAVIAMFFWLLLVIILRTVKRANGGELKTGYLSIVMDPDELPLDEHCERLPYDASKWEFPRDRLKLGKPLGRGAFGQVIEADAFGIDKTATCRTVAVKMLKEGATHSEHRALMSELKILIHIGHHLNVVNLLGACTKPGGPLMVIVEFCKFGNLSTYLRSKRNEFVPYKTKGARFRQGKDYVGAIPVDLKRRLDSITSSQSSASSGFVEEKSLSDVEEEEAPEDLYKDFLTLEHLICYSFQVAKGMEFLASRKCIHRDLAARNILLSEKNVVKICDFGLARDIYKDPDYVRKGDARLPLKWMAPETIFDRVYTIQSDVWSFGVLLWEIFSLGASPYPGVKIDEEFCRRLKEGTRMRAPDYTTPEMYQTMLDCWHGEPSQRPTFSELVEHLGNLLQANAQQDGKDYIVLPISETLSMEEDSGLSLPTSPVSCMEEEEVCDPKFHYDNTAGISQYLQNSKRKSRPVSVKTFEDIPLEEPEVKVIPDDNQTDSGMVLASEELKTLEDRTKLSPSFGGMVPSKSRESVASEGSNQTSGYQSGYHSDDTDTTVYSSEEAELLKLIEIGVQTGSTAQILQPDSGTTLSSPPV
Source text: The DUFs were identified from amino acid sequence similarity on the Pfam database. It has been previously shown that both domains of DUF3694 directly bind recombinant VEGFR2 in vitro (Yamada, et al. (2007) Biochemistry 46:10039-45). […] DUF2 was divided into 3 parts, DUF2A (residues 1111-1167), DUF2B (residues 1168-1216), and DUF2C (residues 1217-1281) and each part was expressed as a recombinant protein in bacteria. VEGFR2 was abundantly expressed in HUVECs; thus, cell lysate from HUVECs was incubated with these recombinant proteins on beads, and VEGFR2 binding was determined using the anti-VEGFR2 antibody.

[2] = biological target: T1, vascular endothelial growth factor …; assay: pull-down of endogenous VEGFR2 from HUVEC lysate with the recombinant truncation on beads, western blot with anti-VEGFR2 antibody
[3] = biological target: T2, VEGFR2, recombinant cytosolic domain (Fisher Scientific) (UniProt P35968 789-1356, limits assumed); assay: SPR (BIACORE), peptide on avidin-coated chip, recombinant cytosolic domain as analyte
T2 construct: domain: cytosolic domain; Analyte in the BIACORE experiment
T2 sequence (P35968 789-1356 limits assumed): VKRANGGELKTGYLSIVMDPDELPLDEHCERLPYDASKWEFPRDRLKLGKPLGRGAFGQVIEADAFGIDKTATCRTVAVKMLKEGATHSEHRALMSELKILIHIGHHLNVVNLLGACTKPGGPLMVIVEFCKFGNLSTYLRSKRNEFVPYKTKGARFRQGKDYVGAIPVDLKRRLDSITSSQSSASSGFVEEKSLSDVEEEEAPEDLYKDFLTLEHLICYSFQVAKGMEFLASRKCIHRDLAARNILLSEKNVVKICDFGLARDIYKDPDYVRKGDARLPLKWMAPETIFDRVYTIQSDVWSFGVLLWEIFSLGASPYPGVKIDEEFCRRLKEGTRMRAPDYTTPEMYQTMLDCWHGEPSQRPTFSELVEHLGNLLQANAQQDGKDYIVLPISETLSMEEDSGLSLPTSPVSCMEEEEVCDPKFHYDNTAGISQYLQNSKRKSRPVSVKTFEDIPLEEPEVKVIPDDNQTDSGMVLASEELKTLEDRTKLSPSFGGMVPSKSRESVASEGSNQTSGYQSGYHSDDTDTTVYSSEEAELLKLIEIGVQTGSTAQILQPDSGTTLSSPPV

Par1 = biological target: T3, Par1 (UniProt P25116 22-425, limits assumed); assay: pull-down with peptide on streptavidin beads, mass spec analysis
T3 sequence (looked up): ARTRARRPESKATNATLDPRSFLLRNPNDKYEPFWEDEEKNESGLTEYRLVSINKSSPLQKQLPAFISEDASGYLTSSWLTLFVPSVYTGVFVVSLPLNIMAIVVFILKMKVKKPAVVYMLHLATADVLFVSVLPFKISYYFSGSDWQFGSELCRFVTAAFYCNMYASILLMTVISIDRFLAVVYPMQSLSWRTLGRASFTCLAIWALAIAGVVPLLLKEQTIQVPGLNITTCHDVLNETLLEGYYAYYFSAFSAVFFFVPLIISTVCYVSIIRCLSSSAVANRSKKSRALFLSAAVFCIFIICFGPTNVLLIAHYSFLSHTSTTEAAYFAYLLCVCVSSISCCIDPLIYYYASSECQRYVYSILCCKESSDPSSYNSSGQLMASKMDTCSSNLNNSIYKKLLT

Tie2 = Tie2 (UniProt Q02763 23-1124, limits assumed); assay: as above
Chain of Tie2 (Q02763 23-1124 limits assumed): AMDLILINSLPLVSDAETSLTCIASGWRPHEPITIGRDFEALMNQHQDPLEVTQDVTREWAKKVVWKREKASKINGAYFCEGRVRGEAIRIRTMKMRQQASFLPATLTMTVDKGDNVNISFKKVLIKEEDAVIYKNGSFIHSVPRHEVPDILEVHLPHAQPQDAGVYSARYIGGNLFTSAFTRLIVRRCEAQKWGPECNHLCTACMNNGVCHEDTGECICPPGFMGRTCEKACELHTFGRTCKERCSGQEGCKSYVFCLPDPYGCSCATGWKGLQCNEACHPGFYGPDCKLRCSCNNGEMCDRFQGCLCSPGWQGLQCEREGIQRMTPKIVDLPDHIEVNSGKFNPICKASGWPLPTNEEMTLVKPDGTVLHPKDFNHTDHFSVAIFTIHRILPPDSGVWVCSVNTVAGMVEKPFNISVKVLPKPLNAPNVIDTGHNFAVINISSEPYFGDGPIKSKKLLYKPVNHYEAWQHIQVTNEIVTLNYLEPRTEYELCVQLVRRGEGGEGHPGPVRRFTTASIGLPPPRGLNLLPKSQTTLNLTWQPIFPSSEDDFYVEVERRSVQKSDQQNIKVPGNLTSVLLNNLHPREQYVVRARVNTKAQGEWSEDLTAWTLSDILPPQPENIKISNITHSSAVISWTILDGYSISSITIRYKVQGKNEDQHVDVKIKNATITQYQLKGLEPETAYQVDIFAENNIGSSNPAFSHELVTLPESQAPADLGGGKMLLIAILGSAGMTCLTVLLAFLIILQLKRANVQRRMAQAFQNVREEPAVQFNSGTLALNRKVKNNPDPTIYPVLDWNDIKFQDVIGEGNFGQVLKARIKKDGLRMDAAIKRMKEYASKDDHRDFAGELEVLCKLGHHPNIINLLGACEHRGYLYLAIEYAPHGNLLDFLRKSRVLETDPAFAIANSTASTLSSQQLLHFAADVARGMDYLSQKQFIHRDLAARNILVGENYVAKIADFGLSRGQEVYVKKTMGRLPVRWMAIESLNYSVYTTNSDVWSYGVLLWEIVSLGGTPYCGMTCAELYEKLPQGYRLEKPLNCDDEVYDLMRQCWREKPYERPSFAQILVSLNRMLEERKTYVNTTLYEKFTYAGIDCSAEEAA

[4] = biological target: T1, vascular endothelial growth factor …; assay: pull-down from HUVEC lysates, peptide on streptavidin beads
[5] = biological target: PDGFRβ, endogenous, found in the pull-down by mass spectrometry (UniProt P09619 33-1106, limits assumed); assay: pull-down with peptide on streptavidin beads, mass spec analysis
[6] = biological target: EGFR, endogenous, found in the pull-down by mass spectrometry (UniProt P00533 25-1210, limits assumed); assay: as above
[7] = biological target: PDGFRα, endogenous, found in the pull-down by mass spectrometry (UniProt P16234 24-1089, limits assumed); assay: as above
Chain of PDGFRα, endogenous, found in the pull-down by mass spectrometry (P16234 24-1089 limits assumed): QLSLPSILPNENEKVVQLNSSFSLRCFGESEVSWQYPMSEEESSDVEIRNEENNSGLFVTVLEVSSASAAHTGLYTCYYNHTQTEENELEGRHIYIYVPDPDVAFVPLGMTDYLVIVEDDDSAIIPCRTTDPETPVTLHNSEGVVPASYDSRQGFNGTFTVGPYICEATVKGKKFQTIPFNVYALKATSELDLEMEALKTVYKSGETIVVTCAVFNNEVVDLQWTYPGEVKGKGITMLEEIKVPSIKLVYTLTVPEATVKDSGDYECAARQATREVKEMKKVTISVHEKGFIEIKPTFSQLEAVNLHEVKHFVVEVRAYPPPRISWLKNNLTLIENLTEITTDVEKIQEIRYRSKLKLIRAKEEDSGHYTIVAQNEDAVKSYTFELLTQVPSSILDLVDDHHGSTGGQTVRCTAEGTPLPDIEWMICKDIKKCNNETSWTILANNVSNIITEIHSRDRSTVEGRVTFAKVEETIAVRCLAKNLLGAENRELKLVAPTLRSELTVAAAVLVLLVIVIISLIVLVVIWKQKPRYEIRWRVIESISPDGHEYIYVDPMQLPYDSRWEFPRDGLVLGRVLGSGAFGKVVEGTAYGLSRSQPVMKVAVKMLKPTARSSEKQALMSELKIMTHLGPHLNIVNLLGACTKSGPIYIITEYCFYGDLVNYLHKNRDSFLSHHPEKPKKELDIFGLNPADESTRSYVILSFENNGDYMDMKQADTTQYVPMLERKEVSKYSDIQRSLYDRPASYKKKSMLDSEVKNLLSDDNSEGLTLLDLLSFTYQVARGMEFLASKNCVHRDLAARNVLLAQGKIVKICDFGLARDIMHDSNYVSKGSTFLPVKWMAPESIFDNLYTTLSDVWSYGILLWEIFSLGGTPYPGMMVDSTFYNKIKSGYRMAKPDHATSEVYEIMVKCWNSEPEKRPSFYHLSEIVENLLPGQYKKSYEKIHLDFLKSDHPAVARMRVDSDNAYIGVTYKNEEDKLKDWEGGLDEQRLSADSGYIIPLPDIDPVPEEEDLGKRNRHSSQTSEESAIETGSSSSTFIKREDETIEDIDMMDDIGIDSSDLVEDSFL

B1: DUF2B (residues 1168-1216 of KIF13B), recombinant protein from bacteria (other, human, UniProt Q9NQT8 1168-1216, looked up)
chain: THIPVIFLDLNADDFSSQDNLDDPEAGGWDATLTGEEEEEFFELQIVKQ
notes: range 1168-1216; not shown: His-tag and S-tag
B1: no binding [1].

B2: DUF2A (residues 1111-1167 of KIF13B), recombinant protein from bacteria (other, human, UniProt Q9NQT8 1111-1167, looked up)
chain: QKLVSKRDKTEDDADREAQLLEMRLTLTEERNAVMVPSAGSGIPGAPAEWTPVPGME
notes: range 1111-1167; not shown: His-tag and S-tag
B2: no binding [1].

B3: C7 (peptide, not shown: small tags and cut ends)
peptide: ADMQLVLRKRICVNVHGRQGF
notes: the sheet prints only 'C7'; also called DUF2C7; DUF C7 (1261-1281 aa)
B3: no binding [2].

B4: Biotin-DUF2C5 peptide (synthetic, residues 1238-1260 of KIF13B with a biotin-tag) (peptide)
peptide: SRGTPVDERLFLIVRVTVQLSHP
modifications: also: biotin-tag (position not given here)
notes: Immobilised on streptavidin beads (pull-down, mass spectrometry) or on an avidin-coated BIACORE chip
B4 was tested, and the Kd [3] was 5.5 nM, the binding result (Par1) was “no binding” and the binding result (Tie2) was “no binding”.

B5: C4 (peptide, UniProt Q9NQT8 1226-1251, looked up)
single chain: SWDSAVHGCPQLSRGTPVDERLFLIV
notes: recombinant truncated mutant expressed in bacteria with His-tag and S-tag; the sheet prints only 'C4'; also called DUF2C4; DUF C4 (1226-1251 aa)
B5: no binding [2].

B6: C1 (peptide, UniProt Q9NQT8 1202-1240, looked up)
single chain: GEEEEEFFELQIVKQHDGEVKAEASWDSAVHGCPQLSRG
notes: recombinant truncated mutant expressed in bacteria with His-tag and S-tag; the sheet prints only 'C1'; also called DUF2C1; DUF C1 (1202-1240 aa)
B6: no binding [2].

B7: CT23 (residues 1650 to 1672 of KIF13B), synthetic negative control peptide with a biotin-tag (peptide, UniProt Q9NQT8 1650-1672, looked up)
peptide: RVRASELRSFSRMLAGDPGCSPG
modifications: also: biotin-tag (position not given here)
notes: range 1650-1672
B7: no binding [3]; no binding [4]; no binding [5]. B7: no binding [6]; no binding [7].
